Measurements taken from PMC4072508, “Genome-Wide Prediction and Validation of Peptides That Bind Human Prosurvival Bcl-2 Proteins” (PLoS Computational Biology, 2014).

Key:
Mcl-1 = target: T1, Mcl-1 (Homo sapiens, UniProt Q07820); assay: LUMIER full-length protein interaction; assay type: binding; details: LUMIER results for Mcl-1, Z-score relative to Gaussian fit of the data
T1 construct: myc-Mcl-1 SPOT array & FP; made in house
Protocol: (§1) The LUMIER assay was carried out as previously described with the following modifications. A stable cell line expressing receptor tagged on the N-terminus with Nanoluc luciferase was created (the prey). […] Each bait construct was transfected into the receptor-luciferase cells in a 96-well format and after 48 hours the cells were lysed and transferred to 384-well plates coated with anti-FLAG. After incubation and washing, luminescence was measured to quantify how much receptor-luciferase was captured by the bait protein. Anti-Flag ELISA signal was used to exclude bait proteins that were not expressed. The experiment was carried out two times, each in duplicate.

Bcl-xL = target: T2, Bcl-xL (Homo sapiens, UniProt Q07817); assay: LUMIER full-length protein interaction; assay type: binding; details: LUMIER results for Bcl-xL, Z-score of the interaction relative to the Gaussian fit of the data
T2 construct: myc-Bcl-xL SPOT array & FP; made in house
T2 sequence (Q07817 with tags, fused parts or gaps): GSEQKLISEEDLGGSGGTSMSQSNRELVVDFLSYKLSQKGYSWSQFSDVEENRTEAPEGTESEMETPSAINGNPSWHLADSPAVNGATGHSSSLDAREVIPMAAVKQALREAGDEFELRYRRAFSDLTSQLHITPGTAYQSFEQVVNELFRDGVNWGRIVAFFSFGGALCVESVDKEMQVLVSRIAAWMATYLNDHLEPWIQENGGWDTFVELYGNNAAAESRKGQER
Protocol: as §1

T1 sequence (Q07820 with tags, fused parts or gaps): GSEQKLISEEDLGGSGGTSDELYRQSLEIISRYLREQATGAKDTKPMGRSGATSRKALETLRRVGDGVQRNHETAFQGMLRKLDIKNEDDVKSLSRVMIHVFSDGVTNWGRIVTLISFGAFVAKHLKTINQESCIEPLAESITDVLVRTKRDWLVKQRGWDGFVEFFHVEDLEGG

B1: MTA2 (protein, UniProt O94776 1-668, looked up)
Metastasis-associated protein …: MAANMYRVGDYVYFENSSSNPYLVRRIEELNKTANGNVEAKVVCLFRRRDISSSLNSLADSNAREFEEESKQPGVSEQQRHQLKHRELFLSRQFESLPATHIRGKCSVTLLNETDILSQYLEKEDCFFYSLVFDPVQKTLLADQGEIRVGCKYQAEIPDRLVEGESDNRNQQKMEMKVWDPDNPLTDRQIDQFLVVARAVGTFARALDCSSSIRQPSLHMSAAAASRDITLFHAMDTLQRNGYDLAKAMSTLVPQGGPVLCRDEMEEWSASEAMLFEEALEKYGKDFNDIRQDFLPWKSLASIVQFYYMWKTTDRYIQQKRLKAAEADSKLKQVYIPTYTKPNPNQIISVGSKPGMNGAGFQKGLTCESCHTTQSAQWYAWGPPNMQCRLCASCWIYWKKYGGLKTPTQLEGATRGTTEPHSRGHLSRPEAQSLSPYTTSANRAKLLAKNRQTFLLQTTKLTRLARRMCRDLLQPRRAARRPYAPINANAIKAECSIRLPKAAKTPLKIHPLVRLPLATIVKDLVAQAPLKPKTPRGTKTPINRNQLSQNRGLGGIMVKRAYETMAGAGVPFSANGRPLASGIRSSSQPAAKRQKLNPADAPNPVVFVATKDTRALRKALTHLEMRRAARRPNLPLKVKPTLIAVRPPVPLPAPSHPASTNEPIVLED
- z-score 1.2 (Mcl-1; experiment 1, duplicate 2): 0.31
- z-score 2.1 (Mcl-1; experiment 2, duplicate 1): 0.117
- z-score 2.2 (Mcl-1; experiment 2, duplicate 2): 0.04852
- z-score 1.1 (Bcl-xL; experiment 1, duplicate 1): 11.5243
- z-score 1.2 (Bcl-xL; experiment 1, duplicate 2): 0.8005
- z-score 2.1 (Bcl-xL; experiment 2, duplicate 1): -0.1835
- z-score 2.2 (Bcl-xL; experiment 2, duplicate 2): 0.205
